Columns and labels:
[1] = biological target: T1, cynomolgus transferrin receptor (TfR) ectodomain (ECD) (cynomolgus, UniProt Q5RDH6 121-760 (Pongo abelii entry), biotinylated where captured on streptavidin); test: ELISA, Fc-Fab fusion (dimer format) titrated on plate-coated cyno TfR; OD650
T1 construct: also called cyno TfR; cynoTfR
T1 chain: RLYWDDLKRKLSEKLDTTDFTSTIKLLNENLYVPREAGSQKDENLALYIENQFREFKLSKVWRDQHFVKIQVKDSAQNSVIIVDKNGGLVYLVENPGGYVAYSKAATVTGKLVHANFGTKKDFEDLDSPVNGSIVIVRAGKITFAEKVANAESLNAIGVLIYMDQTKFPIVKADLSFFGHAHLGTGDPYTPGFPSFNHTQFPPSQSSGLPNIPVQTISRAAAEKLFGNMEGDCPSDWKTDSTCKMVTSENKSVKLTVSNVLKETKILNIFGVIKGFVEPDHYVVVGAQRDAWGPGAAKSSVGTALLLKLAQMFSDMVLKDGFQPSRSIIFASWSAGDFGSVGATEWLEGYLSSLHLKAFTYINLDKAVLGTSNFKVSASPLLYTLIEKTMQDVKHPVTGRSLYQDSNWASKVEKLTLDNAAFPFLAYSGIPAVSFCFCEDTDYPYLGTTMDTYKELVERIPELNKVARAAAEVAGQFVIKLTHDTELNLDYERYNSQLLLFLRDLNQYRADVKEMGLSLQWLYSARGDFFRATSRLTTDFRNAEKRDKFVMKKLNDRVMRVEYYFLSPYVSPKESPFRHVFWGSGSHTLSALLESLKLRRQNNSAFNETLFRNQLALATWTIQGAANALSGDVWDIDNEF

[2] = biological target: T2, human transferrin receptor (TfR) ectodomain (ECD) (human, UniProt P02786 121-760, biotinylated where captured on streptavidin); test: ELISA, Fc-Fab fusion (dimer format) titrated on plate-coated human TfR; OD650
T2 construct: also called human TfR; huTfR
Experimental: Fc regions comprising the CH3B clone sequences were fused to Fab fragments and were assayed in a dimer format.

[3] = biological target: T1, cynomolgus transferrin receptor (TfR) …; test: ELISA, Fc-Fab fusion titrated on plate-coated cyno TfR; OD650
Excerpt: (§1) The CH2C variants were expressed as Fc fusions to Fab fragments by cloning into an expression vector containing an anti-BACE1 benchmark variable region sequence.

[4] = biological target: T2, human transferrin receptor (TfR) …; test: ELISA, Fc-Fab fusion titrated on plate-coated human TfR; OD650
Excerpt: as §1

B1: Clone CH3B.1 (designed binder)
chain: PCPAPELLGGPSVFLFPPKPKDTLMISRTPEVTCVVVDVSHEDPEVKFNWYVDGVEVHNAKTKPREEQYNSTYRVVSVLTVLHQDWLNGKEYKCKVSNKALPAPIEKTISKAKGQPRFDYVTTLPPSRDELTKNQVSLTCLVKGFYPSDIAVEWESNGQPENNYKTTPPVLDSDGSFFLYSKLTVDKSRWQQGNVFSCSVMHEALHNHYGFHDLSLSPGK
- EC50 (read off the curve) [1]: ~3 nM
- EC50 (read off the curve) [2]: ~4 nM

B2: Clone CH3B.7 (designed binder)
chain: PCPAPELLGGPSVFLFPPKPKDTLMISRTPEVTCVVVDVSHEDPEVKFNWYVDGVEVHNAKTKPREEQYNSTYRVVSVLTVLHQDWLNGKEYKCKVSNKALPAPIEKTISKAKGQPRFDIVTTLPPSRDELTKNQVSLTCLVKGFYPSDIAVEWESNGQPENNYKTTPPVLDSDGSFFLYSKLTVDKSRWQQGNVFSCSVMHEALHNHYGFHDLSLSPGK
- binding result [1]: binds
- binding result [2]: binds

B3: Clone CH3B.4 (designed binder)
chain: PCPAPELLGGPSVFLFPPKPKDTLMISRTPEVTCVVVDVSHEDPEVKFNWYVDGVEVHNAKTKPREEQYNSTYRVVSVLTVLHQDWLNGKEYKCKVSNKALPAPIEKTISKAKGQPRFEMVTTLPPSRDELTKNQVSLTCLVKGFYPSDIAVEWESNGQPENNYKTTPPVLDSDGSFFLYSKLTVDKSRWQQGNVFSCSVMHEALHNHYGFHDLSLSPGK
- binding result [1]: binds
- binding result [2]: binds

B4: Clone CH3B.5 (designed binder)
chain: PCPAPELLGGPSVFLFPPKPKDTLMISRTPEVTCVVVDVSHEDPEVKFNWYVDGVEVHNAKTKPREEQYNSTYRVVSVLTVLHQDWLNGKEYKCKVSNKALPAPIEKTISKAKGQPRFELVTTLPPSRDELTKNQVSLTCLVKGFYPSDIAVEWESNGQPENNYKTTPPVLDSDGSFFLYSKLTVDKSRWQQGNVFSCSVMHEALHNHYGFHDLSLSPGK
- binding result [1]: binds
- binding result [2]: binds

B5: Clone CH3B.2 (designed binder)
chain: PCPAPELLGGPSVFLFPPKPKDTLMISRTPEVTCVVVDVSHEDPEVKFNWYVDGVEVHNAKTKPREEQYNSTYRVVSVLTVLHQDWLNGKEYKCKVSNKALPAPIEKTISKAKGQPRFDMVTTLPPSRDELTKNQVSLTCLVKGFYPSDIAVEWESNGQPENNYKTTPPVLDSDGSFFLYSKLTVDKSRWQQGNVFSCSVMHEALHNHYGFHDLSLSPGK
- EC50 (read off the curve) [1]: ~2 nM
- EC50 (read off the curve) [2]: ~4 nM

B6: Clone CH3B.3 (designed binder)
chain: PCPAPELLGGPSVFLFPPKPKDTLMISRTPEVTCVVVDVSHEDPEVKFNWYVDGVEVHNAKTKPREEQYNSTYRVVSVLTVLHQDWLNGKEYKCKVSNKALPAPIEKTISKAKGQPRFEYVTTLPPSRDELTKNQVSLTCLVKGFYPSDIAVEWESNGQPENNYKTTPPVLDSDGSFFLYSKLTVDKSRWQQGNVFSCSVMHEALHNHYGFHDLSLSPGK
- binding result [1]: binds
- binding result [2]: binds

B7: Clone CH3B.6 (designed binder)
chain: PCPAPELLGGPSVFLFPPKPKDTLMISRTPEVTCVVVDVSHEDPEVKFNWYVDGVEVHNAKTKPREEQYNSTYRVVSVLTVLHQDWLNGKEYKCKVSNKALPAPIEKTISKAKGQPRFEIVTTLPPSRDELTKNQVSLTCLVKGFYPSDIAVEWESNGQPENNYKTTPPVLDSDGSFFLYSKLTVDKSRWQQGNVFSCSVMHEALHNHYGFHDLSLSPGK
- binding result [1]: binds
- binding result [2]: binds

B8: Clone CH3B.9 (designed binder)
chain: PCPAPELLGGPSVFLFPPKPKDTLMISRTPEVTCVVVDVSHEDPEVKFNWYVDGVEVHNAKTKPREEQYNSTYRVVSVLTVLHQDWLNGKEYKCKVSNKALPAPIEKTISKAKGQPRFGMVTTLPPSRDELTKNQVSLTCLVKGFYPSDIAVEWESNGQPENNYKTTPPVLDSDGSFFLYSKLTVDKSRWQQGNVFSCSVMHEALHNHYGFHDLSLSPGK
- binding result [1]: binds
- binding result [2]: binds

B9: Clone CH2C.3 (designed binder)
chain: PCPAPELLGGPSVFLFPPKPKDTLMISRTPEVTCVVVDPQTPPWEVKFNWYVDGVEVHNAKTKPREEEYYSNYRVVSVLTVLHQDWLNGKEYKCKVSNKALPAPIEKTISKAKGQPREPQVYTLPPSRDELTKNQVSLTCLVKGFYPSDIAVEWESNGQPENNYKTTPPVLDSDGSFFLYSKLTVDKSRWQQGNVFSCSVMHEALHNHYTQKSLSLSPGK
- binding result [3]: binds
- binding result [4]: binds

B10: Clone CH2C.5 (designed binder)
chain: PCPAPELLGGPSVFLFPPKPKDTLMISRTPEVTCVVVDPQTVPWEVKFNWYVDGVEVHNAKTKPREEEYYSNYRVVSVLTVLHQDWLNGKEYKCKVSNKALPAPIEKTISKAKGQPREPQVYTLPPSRDELTKNQVSLTCLVKGFYPSDIAVEWESNGQPENNYKTTPPVLDSDGSFFLYSKLTVDKSRWQQGNVFSCSVMHEALHNHYTQKSLSLSPGK
- binding result [3]: binds
- binding result [4]: binds

B11: Clone CH2C.1 (designed binder)
chain: PCPAPELLGGPSVFLFPPKPKDTLMISRTPEVTCVVVDPQTPPWEVKFNWYVDGVEVHNAKTKPREEEYYTYYRVVSVLTVLHQDWLNGKEYKCKVSNKALPAPIEKTISKAKGQPREPQVYTLPPSRDELTKNQVSLTCLVKGFYPSDIAVEWESNGQPENNYKTTPPVLDSDGSFFLYSKLTVDKSRWQQGNVFSCSVMHEALHNHYTQKSLSLSPGK
- EC50 (read off the curve) [3]: ~8 nM
- binding result [4]: binds

B12: Clone CH2C.4 (designed binder)
chain: PCPAPELLGGPSVFLFPPKPKDTLMISRTPEVTCVVVDFRGPPWEVKFNWYVDGVEVHNAKTKPREEEYYHDYRVVSVLTVLHQDWLNGKEYKCKVSNKALPAPIEKTISKAKGQPREPQVYTLPPSRDELTKNQVSLTCLVKGFYPSDIAVEWESNGQPENNYKTTPPVLDSDGSFFLYSKLTVDKSRWQQGNVFSCSVMHEALHNHYTQKSLSLSPGK
- EC50 (read off the curve) [3]: ~8 nM

B13: Clone CH2C.2 (designed binder)
chain: PCPAPELLGGPSVFLFPPKPKDTLMISRTPEVTCVVVDPPSPPWEVKFNWYVDGVEVHNAKTKPREEEYYSNYRVVSVLTVLHQDWLNGKEYKCKVSNKALPAPIEKTISKAKGQPREPQVYTLPPSRDELTKNQVSLTCLVKGFYPSDIAVEWESNGQPENNYKTTPPVLDSDGSFFLYSKLTVDKSRWQQGNVFSCSVMHEALHNHYTQKSLSLSPGK
- binding result [3]: binds
- binding result [4]: binds

B14: Clone CH2C.7 (designed binder)
chain: PCPAPELLGGPSVFLFPPKPKDTLMISRTPEVTCVVVDPPVPPWEVKFNWYVDGVEVHNAKTKPREEEYYSNYRVVSVLTVLHQDWLNGKEYKCKVSNKALPAPIEKTISKAKGQPREPQVYTLPPSRDELTKNQVSLTCLVKGFYPSDIAVEWESNGQPENNYKTTPPVLDSDGSFFLYSKLTVDKSRWQQGNVFSCSVMHEALHNHYTQKSLSLSPGK
notes: found on phage
- binding result [3]: binds
- binding result [4]: binds

B15: Clone CH2C.6 (designed binder)
chain: PCPAPELLGGPSVFLFPPKPKDTLMISRTPEVTCVVVDPKMPPWEVKFNWYVDGVEVHNAKTKPREEEYYTYYRVVSVLTVLHQDWLNGKEYKCKVSNKALPAPIEKTISKAKGQPREPQVYTLPPSRDELTKNQVSLTCLVKGFYPSDIAVEWESNGQPENNYKTTPPVLDSDGSFFLYSKLTVDKSRWQQGNVFSCSVMHEALHNHYTQKSLSLSPGK
- binding result [3]: binds
- binding result [4]: binds

— patent publication US20230235072A1 (DENALI THERAPEUTICS, published 2023)
